Blank lines part the entries; values can stand above or below the binder they belong to.
Tests used:
[1] = biological target: T1, Human CD45RB (format not stated) (human, UniProt P08575-9 26-1192, limits assumed); experiment: screening of harvest 2
T1 construct: also called RB exon of CD45
T1 sequence (looked up): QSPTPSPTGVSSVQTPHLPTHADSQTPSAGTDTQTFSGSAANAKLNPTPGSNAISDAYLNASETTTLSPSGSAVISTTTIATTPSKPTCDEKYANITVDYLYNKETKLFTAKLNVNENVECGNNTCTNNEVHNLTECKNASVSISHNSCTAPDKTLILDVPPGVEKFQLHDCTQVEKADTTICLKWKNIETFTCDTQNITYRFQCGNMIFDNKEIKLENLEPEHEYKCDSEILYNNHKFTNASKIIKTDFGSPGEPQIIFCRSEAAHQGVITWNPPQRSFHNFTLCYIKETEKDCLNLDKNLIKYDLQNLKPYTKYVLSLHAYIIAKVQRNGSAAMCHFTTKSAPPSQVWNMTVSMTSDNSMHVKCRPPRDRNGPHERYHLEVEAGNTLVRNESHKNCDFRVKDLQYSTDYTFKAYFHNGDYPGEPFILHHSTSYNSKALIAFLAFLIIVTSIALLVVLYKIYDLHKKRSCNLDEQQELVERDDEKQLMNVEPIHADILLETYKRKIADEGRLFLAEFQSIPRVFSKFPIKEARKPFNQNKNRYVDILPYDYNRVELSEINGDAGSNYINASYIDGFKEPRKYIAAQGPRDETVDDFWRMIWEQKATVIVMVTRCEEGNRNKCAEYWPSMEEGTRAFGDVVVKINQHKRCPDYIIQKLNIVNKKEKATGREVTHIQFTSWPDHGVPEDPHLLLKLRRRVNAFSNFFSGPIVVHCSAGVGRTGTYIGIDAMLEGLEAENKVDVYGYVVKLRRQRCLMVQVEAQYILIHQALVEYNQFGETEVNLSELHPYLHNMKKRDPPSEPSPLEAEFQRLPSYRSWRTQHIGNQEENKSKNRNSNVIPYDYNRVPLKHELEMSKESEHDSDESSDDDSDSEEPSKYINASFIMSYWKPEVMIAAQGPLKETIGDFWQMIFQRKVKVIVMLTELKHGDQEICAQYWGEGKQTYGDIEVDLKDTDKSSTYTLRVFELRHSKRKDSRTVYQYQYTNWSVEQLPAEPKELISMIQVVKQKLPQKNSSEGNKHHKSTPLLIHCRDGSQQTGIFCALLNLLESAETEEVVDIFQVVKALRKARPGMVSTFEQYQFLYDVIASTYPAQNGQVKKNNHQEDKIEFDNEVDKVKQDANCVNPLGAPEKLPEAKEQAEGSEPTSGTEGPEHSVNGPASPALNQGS

[2] = biological target: T2, Human 46 mer peptide (RB exon of human CD45) (human); experiment: recombinant antibody on peptide
T2 construct: synthetic peptide; also called CD45RB 46 mer
T2 peptide: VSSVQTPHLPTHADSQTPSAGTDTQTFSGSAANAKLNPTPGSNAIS

[3] = biological target: T3, Human 18 mer peptide (human); experiment: recombinant antibody on peptide
T3 construct: synthetic peptide from the RB exon
T3 peptide: VSSVQTPHLPTHADSQTPC

[4] = biological target: T4, Human 20.1 peptide (human); experiment: recombinant antibody on peptide
T4 construct: synthetic peptide from the RB exon
T4 peptide: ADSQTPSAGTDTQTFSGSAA

[5] = biological target: T5, Human 20.2 peptide (human); experiment: recombinant antibody on peptide
T5 construct: synthetic peptide from the RB exon
T5 peptide: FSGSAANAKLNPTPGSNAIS

[6] = biological target: T6, chimeric CD45RB (full length human CD45RB with the macaque RB exon) transiently expressed in CHO cells (human; macaque, UniProt P08575-9 26-33; P08575-9 81-1192); experiment: transiently transfected CHO cells
T6 construct: whole chimeric protein on CHO cells; also called Macaque CD45RB CHO
T6 sequence: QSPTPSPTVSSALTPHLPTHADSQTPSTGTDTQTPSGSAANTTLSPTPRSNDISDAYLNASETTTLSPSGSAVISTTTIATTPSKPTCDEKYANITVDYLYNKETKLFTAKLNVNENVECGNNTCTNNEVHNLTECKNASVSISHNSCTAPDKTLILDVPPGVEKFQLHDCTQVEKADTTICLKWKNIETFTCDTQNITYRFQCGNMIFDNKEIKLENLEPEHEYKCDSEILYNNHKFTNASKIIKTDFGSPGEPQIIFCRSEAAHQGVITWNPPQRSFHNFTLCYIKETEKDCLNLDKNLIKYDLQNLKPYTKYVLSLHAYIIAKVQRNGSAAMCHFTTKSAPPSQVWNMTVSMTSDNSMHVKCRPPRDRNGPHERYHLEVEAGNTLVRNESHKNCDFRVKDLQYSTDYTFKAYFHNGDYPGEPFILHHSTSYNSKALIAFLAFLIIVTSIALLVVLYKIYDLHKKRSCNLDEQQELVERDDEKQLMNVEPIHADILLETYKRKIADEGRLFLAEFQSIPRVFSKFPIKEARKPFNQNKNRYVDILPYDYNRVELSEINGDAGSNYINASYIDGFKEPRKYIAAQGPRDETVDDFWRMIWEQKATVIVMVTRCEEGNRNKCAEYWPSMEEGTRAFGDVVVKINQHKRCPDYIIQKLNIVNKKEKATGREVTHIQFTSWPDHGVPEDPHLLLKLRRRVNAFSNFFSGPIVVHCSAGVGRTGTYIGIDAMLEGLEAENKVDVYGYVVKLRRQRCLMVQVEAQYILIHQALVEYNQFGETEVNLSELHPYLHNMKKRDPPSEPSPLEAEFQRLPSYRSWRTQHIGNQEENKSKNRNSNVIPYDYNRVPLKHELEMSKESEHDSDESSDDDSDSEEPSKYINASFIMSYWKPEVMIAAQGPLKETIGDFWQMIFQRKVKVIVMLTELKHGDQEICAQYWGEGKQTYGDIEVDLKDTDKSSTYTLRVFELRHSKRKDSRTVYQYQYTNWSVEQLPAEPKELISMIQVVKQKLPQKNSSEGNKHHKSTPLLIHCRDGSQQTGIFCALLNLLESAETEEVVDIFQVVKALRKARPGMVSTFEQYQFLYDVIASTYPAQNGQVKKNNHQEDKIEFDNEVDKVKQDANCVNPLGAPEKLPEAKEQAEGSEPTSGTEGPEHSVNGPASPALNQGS

[7] = biological target: T1, Human CD45RB (format not stated); experiment: screening of harvest 9
[8] = biological target: T7, Macaque 46 mer peptide (RB exon of macaque CD45RB) (macaque); experiment: recombinant antibody on peptide
T7 construct: synthetic peptide
T7 peptide: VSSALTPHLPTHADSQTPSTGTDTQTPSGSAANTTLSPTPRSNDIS

- binding result [1]: binds
- binding result [2]: binds
- binding result [3]: no binding
- binding result [4]: no binding
- binding result [5]: no binding
- binding result [6]: no binding
B1: AB-CD45RB-XG2-009 (antibody, human IgG2, V domains shown)
VH: QVQLVESGGGVVQPGRSLRLSCAASGFTFSNYGMHWVRQAPGKGLEWVAVIWYDGSKRFYAGSVKGRFTISRDNSKNTLYLQMNSLRAEDTAVYYCARTTDYWGQGTMVTVSS
VL: DIVMTQTPLSLSVTPGQPASISCKSSQSLLHSDGKTYLYWYLQKPGQPPQLLIYEVSNRFSGVPDRFSGSGSGTDFTLKISRVEAEDVGLYWCMQSIQLPITFGQGTRLEIK
notes: recombinant human IgG2 kappa; also called sc009; 16C9 (sc009)

- binding result [7]: binds
- binding result [2]: no binding
- binding result [8]: no binding
- binding result [3]: no binding
- binding result [4]: no binding
- binding result [5]: no binding
B2: AB-CD45RB-XG2-648 (antibody, human IgG2, V domains shown)
VH: QVQLVESGGGLVKPGGSLRLSCAASGFTFNVYYMNWIRQAPGKGLEWVSYISTSSSAIYYADSVKGRFTISRDNAKNSLYLQMNSLRAEDTAVYYCARRTGSTTVFDYWGQGTLVTVSS
VL: EIVLTQSPATLSVSPGERATLSCRASQSINNNLAWYQQKPGQAPRLLIYGASTRATGIPAKFSGSGSGTEFTLTISSLQSENFAVYYCQQYNKWPLTFGGGTKVEIK
notes: recombinant human IgG2 kappa; also called sc648
